In publication PMC2775743, “Structural insights into the substrate tunnel of Saccharomyces cerevisiae carbonic anhydrase Nce103” (BMC Structural Biology, 2009):

B1: Nce103ΔN13 (enzyme, S. cerevisiae, UniProt P53615 14-221, looked up)
chain: HNSNLQDILAANAKWASQMNNIQPTLFPDHNAKGQSPHTLFIGCSDSRYNENCLGVLPGEVFTWKNVANICHSEDLTLKATLEFAIICLKVNKVIICGHTDCGGIKTCLTNQREALPKVNCSHLYKYLDDIDTMYHEESQNLIHLKTQREKSHYLSHCNVKRQFNRIIENPTVQTAVQNGELQVYGLLYNVEDGLLQTVSTYTKVTPK
notes: Carbonic anhydrase Nce103 (β-class), S. cerevisiae strain S288C, ORF YNL036W, without the N-terminal 13 residues; residues His14 to Lys221; One zinc ion for each subunit; In the crystal the His tag, His14-Ser16 and Pro41-Gln48 are not seen in the density; also called truncated NCE103 without the N-terminal 13 residues; β-CA Nce103/YNL036W; source: for crystallization in 20 mM acetate buffer, pH …
B2: Nce103ΔN50 (enzyme, S. cerevisiae, UniProt P53615 51-221, looked up)
chain: HTLFIGCSDSRYNENCLGVLPGEVFTWKNVANICHSEDLTLKATLEFAIICLKVNKVIICGHTDCGGIKTCLTNQREALPKVNCSHLYKYLDDIDTMYHEESQNLIHLKTQREKSHYLSHCNVKRQFNRIIENPTVQTAVQNGELQVYGLLYNVEDGLLQTVSTYTKVTPK
notes: Carbonic anhydrase Nce103 (β-class), S. cerevisiae strain S288C, ORF YNL036W, residues His51-Lys221; the tag is probably N-terminal here too; also called truncated NCE103 without the N-terminal 50 residues

Legend:
[1] = molecular target: the molecule itself; assay: crystal structure; Nce103ΔN13, hanging drop vapor diffusion at 16°C; 20% PEG4000, 0.1 M sodium citrate pH 5.6, 0.1 M sodium acetate, 20% ethylene glycol; two molecules in the asymmetric unit; 2.04 Å
[2] = molecular target: the molecule itself; assay: not stated; oligomeric state in solution, noted during purification (Ni2+ affinity, Superdex 75 gel filtration); how it was determined is not told

Protein | stoichiometry N [1] | stoichiometry N [2]
B1 | 2 | –
B2 | – | 2
